In US10159707B2, “Treatment of cancers with immunostimulatory HIV Tat derivative polypeptides” (PIN Pharma, Inc., priority 2013, dated 2018):
“Also recorded” adds a separate entry of the source.

How the values were obtained:
Assay type in all cases: in vivo, mouse
4T1 breast tumor = assay: 4T1 primary breast tumor growth in BALB/c mice
Protocol: BALB/c mice were injected (SC) with 1×10^4 4 T1, 1×10^5 TS/A or 2×10^5 SM1 cells, respectively, in the left mammary pad on day 0. […] The control group received PBS injection. […] Tumor burden (tumor volume) was measured and recorded three times weekly. Animals were sacrificed when tumors reached a volume of 15 mm in diameter and the tumors harvested and weighed.
The therapeutic effect of systemic administration of synthetic, Tat-derived compositions in murine models of breast cancer was investigated. […]

4T1 breast tumors = assay: Kaplan-Meier survival of mice bearing 4T1 breast tumors
Protocol: To determine whether Nani-P2 treatment could extend survival in addition to shrinking primary tumors in mice, treatment protocols using various dosing schedules and routes (SC, IV or IT) of administration of 40 ng Nani-P2 were performed. Cohorts of ten mice per group were followed for length of survival, as assessed by use of the Kaplan-Meier product limit method. As per Columbia University Medical Center Animal Facility regulations, each mouse was euthanized at a mean tumor diameter of approximately 15 mm, or earlier if the mouse became moribund, making one of these two outcomes the defining criteria for fatality.

TS/A breast cancer cells = assay: TS/A breast carcinoma model, primary tumor growth
Protocol: BALB/c mice were injected (SC) with 1×10^4 4 T1, 1×10^5 TS/A or 2×10^5 SM1 cells, respectively, in the left mammary pad on day 0. Immunotherapy was performed by directly injecting a Tat derivative into the right flank at 0, 7, 12, and 17 days after establishment of tumors. The control group received PBS injection. […] Tumor burden (tumor volume) was measured and recorded three times weekly. Animals were sacrificed when tumors reached a volume of 15 mm in diameter and the tumors harvested and weighed.
The 4T1 murine mammary tumor model was chosen for study because it is an aggressive and rapidly invasive tumor; it is routinely metastatic at fourteen days post-implant by which time it is difficult to treat. To learn whether the efficacy of Nani-P2 could extend to other murine breast tumor models, two additional mammary tumors, TS/A and SM1 were studied (FIG. 6). TS/A primary mammary tumors were approximately as aggressive as 4T1, reaching a tumor volume of 15 mm at 30 days (FIG. 6A). However, the TS/A tumors were considerably more responsive to Nani-P2 treatment, with an approximate 50% suppression of growth after treatment with 0.4 ng Nani-P2, and a 40% total remission rate at 30 days.

IFN-γ = assay: ELISA analysis of IFN-γ production by immune spleen cells of 4T1 tumor-bearing mice
Protocol: Splenocyte secretion of IFN-γ was assessed by an OptEIA™ ELISA kit (BD Biosciences). Briefly, spleen cells (1×10^5/well) from 4T1 tumor-bearing mice were cultured with or without 5×10^3/well mitomycin C (50 μg/ml)-treated 4T1 cells (used to provide tumor antigens) in DMEM at a 20:1 E:T (effector:[…]) in 96-well plates. Supernatants were collected after 72 hr and kept frozen at −80° C. until analysis without loss of activity. IFN-γ was measured in cell-free supernatants of duplicate wells by ELISA according to the manufacturer's instructions. Tumor-specific IFN-γ production was calculated by subtracting the background values measured in supernatants of spleen cells cultured with medium alone and optical density (OD) values were converted to pg/ml amounts of IFN-γ using a recombinant IFN-γ standard curve. Stimulation index (SI) was calculated as the ratio of IFN-γ in stimulated versus control cultures.
To determine whether cytotoxic T-lymphocytes play a role in tumor rejection induced by Nani-P2 therapy, an IFN-γ ELISA assay (FIG. 7) was performed to compare spleen cells of 4T1 tumor-bearing mice treated either without (Control) or with Nani-P2 (FIG. 7). Spleens were removed under sterile conditions and prepared as described elsewhere (duPre'S. et al. Exp. Mol. Path. 85:174-188, 2008). Briefly, spleens were homogenized and splenocytes, as a rich source of systemic cytolytic T cells and APCs, were co-cultured with mitomycin C-treated 4T1 stimulator cells to induce recall immune responses. Control wells were cultured with medium alone.

4T1 cells = assay: Repeated dosing of Nani-P2 and cyclophosphamide in 4T1 tumor-bearing mice
Protocol: Four groups of 10 BALB/c mice were implanted with 1×10^4 4 T1 cells SC into the mammary fat pad. Treatment was initiated when tumor diameters reached 4-5 mm, on day 10. Control mice were injected IV with PBS at 3 days intervals, while alternating treatment mice received 3 doses of drug every 3 days in rotating 10 day cycles. Tumor burden (tumor size mm^3) was calculated using a standard formula. CY (cyclophosphamide alone) mice were injected IP weekly with 80 mg/kg per mouse beginning on day 10. Cy/Nani-P2 (cyclophosphamide first followed by Nani-P2) mice were first injected IP with cyclophosphamide (80 mg/kg) at 3 days intervals for three doses starting at day 10 and then injected IV with Nani-P2 (40 ng) at 3 days intervals for three doses in rotation. The cycle of 3 doses of CY followed by 3 doses of Nani-P2 was repeated until day 50. Nani-P2/CY (Nani-P2 first followed by cyclophosphamide) mice were first injected IV with Nani-P2 (40 ng) at 3 day intervals for 3 doses starting on day 10 and then injected i.p. with cyclophosphamide at 3 day intervals in rotation. The cycle of 3 doses of Nani-P2 followed by 3 doses of CY was repeated until day 50.

[1] = tested on: tumor infiltrating CD8+ CTL; assay: IHC staining of primary 4T1 breast tumors for CD8; conditions: therapy initiated 7 days after inoculation; resected Day 29/30; listed as PIN-2
Protocol: Female BALB/c mice were inoculated in the mammary fat pad with syngeneic and highly metastatic 4T1 breast cancer cells to model Stage IV human breast cancer. Nani-P2 immunotherapy was initiated 7 days after tumor cell inoculation. Tumors were assessed by caliper measurements throughout the study and resected on Day 29/30. Immunohistochemical staining (IHC) for PD-L1 and CD8 was performed on formalin-fixed, paraffin embedded specimens of primary 4T1 tumors.

[2] = Nani-P2 alternating with cyclophosphamide

B1: Nani-P2: Tat derivative polypeptide SEQ ID NO:3; TF SIVagmVer, cysteine-rich HIV-1, C-terminal SIVagmVer (protein)
chain: MDPKGEEDQDVSHQDLIKQYRKPRTACNNCYCKKCCFHCYACFLRKGLGITYHAFRTRRKKIASADRIPVPQQSISIRGRDSQTTQESQKKVEEQAKANLRISRKNLGDETRGPVGAGN
modifications: Tat derivative polypeptide
notes: TF SIVagmVer, cysteine-rich HIV-1, C-terminal SIVagmVer
4T1 tumor volume difference versus control, 4 ng (4T1 breast tumor; 4 ng per mouse, four times over 21 days, p<0.1 as printed): highly significant | mice in complete remission, disease-free at 50 days (4T1 breast tumor; 40 ng IV weekly over three weeks from day 14): one animal underwent a complete remission; also recorded: One of 10 | mice with regression of tumor at the initial treatment on day 14 (4T1 breast tumor; 40 ng IV, established 4T1 tumors): 7/10 | 4T1 tumor volume difference versus control, 40 ng (4T1 breast tumor; 40 ng per mouse, four times over 21 days, p<0.01): highly significant | primary tumor burden of established 4T1 tumors versus PBS control (4T1 breast tumor; 40 ng weekly for three weeks beginning at day 14 (IV), p<0.01): statistically significant benefit in primary tumor suppression; also recorded: highly significant | 4T1 tumor volume difference versus control starting at day 22 (4T1 breast tumor; 400 ng SC days 0, 7, 14, 21, p<0.01): highly significant | 4T1 tumor burden versus PBS control (4T1 breast tumor; 400 ng partially-purified, SC, days 0, 7, 14, 21 (Nani-P3 also 2 μg), from day 15, p<0.05): significantly reduced tumor burden; also recorded: significant | average decrease of 4T1 tumor burden at maximal effect (4T1 breast tumor; SC therapy begun on day 13, tumors about 5 mm in diameter): 52% | average shrinkage of 4T1 tumor burden (4T1 breast tumor; SC therapy initiated on day 0 after tumor cell injection): 53% | effect of increasing the dose to 400 ng and 2 μg (4T1 breast tumor; SC, compared with 40 ng, data not shown): no further anti-tumor efficacy | difference in primary tumor burden between Nani-P2 and Nani-P1-treated tumors (4T1 breast tumor; day 21 (final dosing), 400 ng SC, p<0.01): 18 mm^3 | dose giving significant 4T1 tumor growth inhibition (4T1 breast tumor; highly-purified, SC): ≤ 0.4 ng | 4T1 breast tumor growth inhibitory effect, dose relation (4T1 breast tumor; highly-purified, SC, 0.4 ng to 40 ng per dose): dose-dependent | survival, intratumoral administration (4T1 breast tumors; 40 ng IT, three weekly cycles, tumors established fourteen days): slightly inferior to SC administration | survival at day 47 (4T1 breast tumors; 40 ng IV, three weekly cycles, tumors established fourteen days, p<0.005): 60% | treated mice still alive at day 48 (4T1 breast tumors; 40 ng SC, 4 doses over 21 days from tumor implant, p<0.001): 35% | survival at day 47 (4T1 breast tumors; 40 ng SC, three weekly cycles, tumors established fourteen days, p<0.05): 20% | survival versus control mice (4T1 breast tumors; 4T1 model): increased survival compared with control mice | tumor growth inhibition and survival benefits, extension past the last dosing (4T1 breast tumors; established 4T1 tumors, treated intravenously): at least 36 days | survival versus controls at day 42 (4T1 breast tumors; four doses 40 ng SC from day 0): statistically significant better survival over controls | survival benefit versus control, IV (4T1 breast tumors; three weekly doses 40 ng IV, therapy delayed until day 13/14, day 47): very highly statistically significant benefit to survival; also recorded: highly statistically significant | survival benefit versus control, SC (4T1 breast tumors; three weekly doses 40 ng SC into draining lymph nodes, therapy delayed until day 13, day 47): statistically significant | suppression of TS/A tumor growth (TS/A breast cancer cells; 0.4 ng SC): ~50% | TS/A primary anti-cancer difference versus control, lowest dose (TS/A breast cancer cells; 0.4 ng SC, p<0.01): highly significant | TS/A primary anti-cancer difference versus control, 40 ng (TS/A breast cancer cells; 40 ng SC, p<0.01): highly significant | TS/A total remission rate at 30 days (TS/A breast cancer cells; SC Nani-P2, 30 days): 40% | IFN-γ production of spleen cells versus control mice (IFN-γ; 40 ng SC weekly for 4 weeks, spleens day 33, 72 hr culture, all conditions of assay): significantly (p<0.05*) higher | baseline levels of INF-γ secreted by splenocytes versus PBS control mice (IFN-γ; no in vitro restimulation): 8 -fold | stimulation index (IFN-γ; tumor stimulators + IL4 + GM-CSF, versus control): 53 | mice in partial remission at day 50 (4T1 cells; [2]): 9/10 | mice in total remission at day 50 (4T1 cells; [2]): 3/10 | survival benefit versus weekly cyclophosphamide (4T1 cells; Nani-P2 bolus treatment alternating with cyclophosphamide, p=0.0001): highly statistically significant | tumor infiltrating CD8+ CTL versus PBS control [1]: infiltrating CD8+ CTL advancing around tumor edge; also recorded: significant increase in the population of tumor infiltrating CD8+ CTL
